The values below come from patent US20250084155A1 (University of Texas, published 2025).

Assay [1] has as its target T1, ATP-HSP70 (ATP-enriched HSP70, expressed in SF9 cells) (human, UniProt P0DMV8 1-641, limits assumed). Briefly: BLI, 77A on sensor, ATP-HSP70 at 300 (µM). How it is done: (§1) HSP70 was expressed in SF9 cells. Affinity chromatography using resins selective for ADP or ATP-binding proteins were used to enrich bulk preparations of the correspondingly bound HSP70 recombinant protein. Protein concentrations, determined after elution, were measured so that equal concentrations could be used in subsequent assays. For BLI-based assays, antibodies and reagents were diluted out onto microwell plates and loaded into the instrument. Antibodies being tested were immobilized onto dip-and-read sensors and then observed for kinetics during binding to ATP or ADP-enriched HSP70. For ELISA, the relevant enriched HSP70 proteins were directly coated onto ELISA plate wells overnight. Test antibodies were then serially diluted across the plate wells, and detected using an appropriate secondary antibody-HRP conjugate. The plates were developed using a TMB substrate, and the O.D. stabilized using an acid stop solution.
A general note: In BLI a coated tip is dipped into the sample, and binding shifts an interference pattern.

The target of assay [2] is T2, ADP-HSP70 (ADP-enriched HSP70, expressed in SF9 cells) (human, UniProt P0DMV8 1-641, limits assumed). Briefly: BLI, 77A on sensor. On the procedure:
as §1

A further assay concerns the target T3, 504 (N-terminal GFP fusion; GFP is not in the letters).
T3 construct: not shown: N-terminal GFP fusion partner and any linker
Briefly: immunoprecipitation with 77A from extracts of HSP70 KO 293T cells, Western blot with anti-GFP [panel B]. For orientation: A western blot detects proteins with antibodies after separation by electrophoresis.

Assay [3] has as its target T1, ATP-HSP70 (ATP-enriched HSP70, …). Briefly: BLI, 77A on sensor, ATP-HSP70 at 150 (µM). On the procedure:
as §1

Assay [4] concerns the target T2, ADP-HSP70 (ADP-enriched HSP70, …). Briefly: ELISA, HSP70 coated. On the procedure: as §1
(§2) ELISA data, shown in FIG. 18, depicted the same trend, in which 77A had higher maximal absorbance with the ADP-enriched HSP70 than the ATP-enriched HSP70.
A general note: In an ELISA, binding on a coated surface is turned into a signal by an enzyme label.

Assay [5] deals with T1, ATP-HSP70 (ATP-enriched HSP70, …). Briefly: ELISA, HSP70 coated. On the procedure: as §1, §2
The target of assay [6] is T4, HSP70 (human HSP70; the antigen of the binning, humanization and variant binding assays) (human, UniProt P0DMV8 1-641, limits assumed).
T4 construct: also called hu HSP70
T4 sequence (P0DMV8 whole entry, change not shown): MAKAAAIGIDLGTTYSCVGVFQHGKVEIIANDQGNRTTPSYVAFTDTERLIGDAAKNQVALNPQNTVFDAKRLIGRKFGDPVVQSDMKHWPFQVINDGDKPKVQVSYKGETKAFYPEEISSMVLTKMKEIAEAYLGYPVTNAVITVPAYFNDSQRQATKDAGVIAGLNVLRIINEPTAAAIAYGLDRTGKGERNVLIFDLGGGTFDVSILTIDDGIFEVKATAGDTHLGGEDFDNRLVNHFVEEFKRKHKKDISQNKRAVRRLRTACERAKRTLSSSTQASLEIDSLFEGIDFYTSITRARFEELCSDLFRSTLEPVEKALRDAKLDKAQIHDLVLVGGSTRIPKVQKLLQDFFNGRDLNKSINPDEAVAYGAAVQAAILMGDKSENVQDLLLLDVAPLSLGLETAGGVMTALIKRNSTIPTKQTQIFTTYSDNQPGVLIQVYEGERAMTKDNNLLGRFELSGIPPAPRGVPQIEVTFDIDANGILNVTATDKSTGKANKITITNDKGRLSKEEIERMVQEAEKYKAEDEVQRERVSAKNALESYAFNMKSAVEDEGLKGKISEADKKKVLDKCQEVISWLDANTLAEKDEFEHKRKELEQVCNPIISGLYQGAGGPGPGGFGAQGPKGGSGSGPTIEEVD
Briefly: BLI, antibody on sensor. The essentials:
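Antibodies immobilized on biolayer interferometry sensors, baseline taken, then dipped into HSP70 antigen solution or buffer. Binding followed as interference-pattern shift; kinetic constants derived by modeling from the signals and reagent concentrations.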

Assay [7] deals with T2, ADP-HSP70 (ADP-enriched HSP70, …). Briefly: BLI, 77A on sensor, ADP-HSP70 at 75 (µM). On the procedure:
as §1

The target is the same in assay [8]. Briefly: BLI, 77A on sensor, ADP-HSP70 at 37.5 (µM). On the procedure:
as §1

Assay [9] addresses T1, ATP-HSP70 (ATP-enriched HSP70, …). Briefly: BLI, 77A on sensor, ATP-HSP70 at 75 (µM). How it is done:
as §1

Assay [10] addresses T5, human HSP70 made in Sf9 insect cells (human, UniProt P0DMV8 1-641, limits assumed).
T5 construct: also called HSP70 made in eukaryotic insect Sf9 cells
As to the kind of experiment: Octet (BLI).

The target in assay [11] is human HSP70 made in E. coli (human, UniProt P0DMV8 1-641, limits assumed). As to the kind of experiment: Octet (BLI).
Chain of human HSP70 made in E. coli (P0DMV8 whole entry): as the sequence (P0DMV8 whole entry, change not shown) above
The next assay deals with murine HSP70 (murine, UniProt P17879 1-642). Briefly: Octet (BLI).
Chain of murine HSP70 (P17879 other isoform, or with tags, fused parts or gaps): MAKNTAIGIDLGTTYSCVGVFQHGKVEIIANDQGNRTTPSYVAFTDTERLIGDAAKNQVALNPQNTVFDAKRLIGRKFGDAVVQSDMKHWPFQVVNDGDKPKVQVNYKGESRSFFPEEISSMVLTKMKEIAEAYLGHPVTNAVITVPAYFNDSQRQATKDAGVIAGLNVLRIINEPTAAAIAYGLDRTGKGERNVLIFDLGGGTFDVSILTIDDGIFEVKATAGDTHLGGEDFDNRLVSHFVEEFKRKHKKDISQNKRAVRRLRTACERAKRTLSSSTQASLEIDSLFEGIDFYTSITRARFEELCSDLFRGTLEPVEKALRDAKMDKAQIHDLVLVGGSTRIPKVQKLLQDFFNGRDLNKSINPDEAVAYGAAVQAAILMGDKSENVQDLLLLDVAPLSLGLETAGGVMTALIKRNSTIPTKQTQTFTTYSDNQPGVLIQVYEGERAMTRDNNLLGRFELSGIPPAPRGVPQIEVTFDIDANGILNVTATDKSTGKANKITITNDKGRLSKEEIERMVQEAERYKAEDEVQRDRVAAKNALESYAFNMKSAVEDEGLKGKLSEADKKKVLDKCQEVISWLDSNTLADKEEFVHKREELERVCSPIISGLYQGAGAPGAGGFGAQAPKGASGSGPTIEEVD
In assay [12] the target is T2, ADP-HSP70 (ADP-enriched HSP70, …). As to the kind of experiment: BLI, 77A on sensor, ADP-HSP70 at 150 (µM). On the procedure:
as §1

Assay [13] has the same target. As to the kind of experiment: BLI, 77A on sensor, ADP-HSP70 at 300 (µM). How it is done: as §1
A further assay addresses T6, recombinant human FcγR2A (human, UniProt P12318 36-218).
T6 sequence (looked up): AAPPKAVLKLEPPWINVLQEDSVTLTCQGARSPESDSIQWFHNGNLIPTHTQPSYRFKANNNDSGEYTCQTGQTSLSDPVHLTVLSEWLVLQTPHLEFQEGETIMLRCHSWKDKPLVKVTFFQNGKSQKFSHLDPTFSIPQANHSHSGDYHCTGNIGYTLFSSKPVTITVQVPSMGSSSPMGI
Briefly: ELISA on coated recombinant human FcγR2A; monomeric antibody; OD 450 nm. On the procedure: ELISA assays were performed to assess binding to coated FcγR2A by either the monomeric antibody or the antibody in complex with HSP70. Briefly, the assay was performed by coating plates with recombinant human FcγR2A overnight at 0.3 μg/mL. Plates were then washed three times with 300 μL of 1×PBST, and then blocked using 150 µL of SuperBlock per well for 1 hr. Washing was repeated as before, then the dilution series of any of the antibody variants (referred to as “monomeric antibody”) or any of the or antibody immuno-complexes (hereafter referred to as “77A ICX”) were added. To make each dilution series, the following was performed: HSP70 was held constant, and first prepared at a 2× concentration of 200 nM. Antibody was first prepared at 600 nM (2× starting concentration) for the first well, and then serially diluted in three-fold increments using 1× PBST. For use in the assay as monomeric antibody, 80 μL of each 2× antibody dilution was added to 80 μL of 1×PBST and mixed well by pipette to make a 1× dilution series, with the highest concentration being 300 nM. To form the 77A ICX, 80 μL of each 2× antibody dilution was added to 80 μL of 2× HSP70 and mixed well by pipette. […] Plates were then read on a plate reader at 450 and 540 nm wavelengths.

T2 sequence (P0DMV8 whole entry): as the sequence (P0DMV8 whole entry, change not shown) above
T1 sequence (P0DMV8 whole entry): as the sequence (P0DMV8 whole entry, change not shown) above
T5 sequence (P0DMV8 whole entry): as the sequence (P0DMV8 whole entry, change not shown) above

B1: 77A antibody (clone 77A, murine anti-HSP70 monoclonal antibody) (antibody, V domains shown)
VH: QIQLVQSGPELKKPGETVKISCKASGYTFTNYGMNWVKQAPGKGLKWMGWINTYTGEPTYADDFKGRFAFSLETSATTAYLQINNLKNEDTATYFCARYDHAMDYWGQGTSVTVSS
VL: DIVMSQSPSSLAVSAGEKVTMSCKSSQSLLNSGTRKNYLAWYQQKPGQSPKLLIYWTSTRESGVPDRFTGSGSGTDFTLTINSVQAEDLAVYYCKQSYTLYTFGGGTKLEIK
notes: murine hybridoma antibody; its isotype control is IgG2B; also called mAb 77A
One may read the Kd as the constant that tells how readily two partners part at equilibrium. The term koff denotes a measure of how fast the partners let go of each other. Low readings indicate a long-lived complex, high ones a short-lived complex. One may read the kon as the rate constant with which the complex forms. Low readings indicate slow association, high ones fast association. The EC50 is the concentration that produces a half-maximal response. As for B1, the Kd was found to be 20.2 nM in assay [1]; 20.2 nM in assay [3]; 1.2 nM in assay [6]; 5.42 nM in assay [7]; 5.42 nM in assay [8]; 20.2 nM in assay [9]. Further, the Kd in [10] is less than 1 pM; in assay [11], 0.85 nM; with murine HSP70, 988 nM; in assay [12], 5.42 nM; in assay [13], 5.42 nM. Moreover, the koff was determined as 0.00038 s⁻¹ in assay [1]; 0.00038 s⁻¹ in assay [3]; 8.08e-05 s⁻¹ in [6]; 0.000292 s⁻¹ in [7]; 0.000292 s⁻¹ in [8]; 0.00038 s⁻¹ in assay [9]. The koff in assay [12] and in [13] was 0.000292 s⁻¹ throughout. Further, the kon in assay [1] is 18800 M⁻¹ s⁻¹; in assay [3], 18800 M⁻¹ s⁻¹; in assay [6] it was 67400 M⁻¹ s⁻¹; in [7], 53800 M⁻¹ s⁻¹; in assay [8], 53800 M⁻¹ s⁻¹; in assay [9], 18800 M⁻¹ s⁻¹. For the same molecule, the kon in assay [12] and in assay [13] was 53800 M⁻¹ s⁻¹ each time. The “fold greater affinity (KD) than ATP-enriched HSP70” value in assay [2] was no less than 4 fold. Further, in the assay with 504, the binding result was “no binding”. For the same molecule, the EC50 in assay [4] was 0.737 nM; in assay [5], 1.77 nM.

B2: h77A-1-G1m3-GAALIE (antibody, human IgG1, kappa)
heavy: QIQLVQSGAEVKKPGASVKVSCKASGYTFTNYGMNWVRQAPGQGLEWMGWINTYTGEPTYADDFKGRFTFTTDTSTSTAYMELRSLRSDDTAVYFCARYDHAMDYWGQGTLVTVSSASTKGPSVFPLAPSSKSTSGGTAALGCLVKDYFPEPVTVSWNSGALTSGVHTFPAVLQSSGLYSLSSVVTVPSSSLGTQTYICNVNHKPSNTKVDKRVEPKSCDKTHTCPPCPAPELLAGPSVFLFPPKPKDTLMISRTPEVTCVVVDVSHEDPEVKFNWYVDGVEVHNAKTKPREEQYNSTYRVVSVLTVLHQDWLNGKEYKCKVSNKALPLPEEKTISKAKGQPREPQVYTLPPSREEMTKNQVSLTCLVKGFYPSDIAVEWESNGQPENNYKTTPPVLDSDGSFFLYSKLTVDKSRWQQGNVFSCSVMHEALHNHYTQKSLSLSPGK
light: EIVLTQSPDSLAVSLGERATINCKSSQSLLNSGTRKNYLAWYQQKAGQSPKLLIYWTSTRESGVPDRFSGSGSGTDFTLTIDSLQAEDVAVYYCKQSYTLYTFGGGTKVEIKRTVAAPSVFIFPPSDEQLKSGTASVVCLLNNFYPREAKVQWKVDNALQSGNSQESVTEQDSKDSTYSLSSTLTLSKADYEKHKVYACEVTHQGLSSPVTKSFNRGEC
notes: IgG1 G236A/A330L/I332E (EU) Fc variant; also called 77A^GAALIE; copies: 2 + 2
Turning to B2, the binding result with recombinant human FcγR2A was “binds”.
